In patent publication US10428140B2, “Anti-EphA4 antibody” (EISAI R&D MANAGEMENT CO., LTD., priority 2015, dated 2019):

T1: human EphB4 (Homo sapiens, UniProt P54760)
T1 construct: a protein of the extracellular region of each human Eph receptor fused with the SEAP protein and the His tag; made in house; host or cells: Expi293F cells
T1 sequence (P54760 16-539 limits assumed): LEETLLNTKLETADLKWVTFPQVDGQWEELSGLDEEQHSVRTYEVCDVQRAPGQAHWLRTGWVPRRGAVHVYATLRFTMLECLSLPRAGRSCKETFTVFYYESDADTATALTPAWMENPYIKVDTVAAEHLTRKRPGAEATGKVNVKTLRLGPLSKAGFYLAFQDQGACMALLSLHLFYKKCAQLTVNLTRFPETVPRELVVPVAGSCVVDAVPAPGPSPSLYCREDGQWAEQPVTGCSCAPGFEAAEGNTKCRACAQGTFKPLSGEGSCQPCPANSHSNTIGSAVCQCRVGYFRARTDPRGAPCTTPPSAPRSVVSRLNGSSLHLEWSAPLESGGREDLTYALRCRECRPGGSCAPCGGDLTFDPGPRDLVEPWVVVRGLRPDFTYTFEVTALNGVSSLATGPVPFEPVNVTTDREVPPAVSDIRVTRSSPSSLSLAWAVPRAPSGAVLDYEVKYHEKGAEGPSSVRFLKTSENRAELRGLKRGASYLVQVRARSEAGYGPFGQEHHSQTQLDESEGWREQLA

T2: human EphA1 (Homo sapiens, UniProt P21709)
T2 construct: a protein of the extracellular region of each human Eph receptor fused with the SEAP protein and the His tag; made in house; host or cells: Expi293F cells (culture supernatant)
T2 sequence (P21709 26-547 limits assumed): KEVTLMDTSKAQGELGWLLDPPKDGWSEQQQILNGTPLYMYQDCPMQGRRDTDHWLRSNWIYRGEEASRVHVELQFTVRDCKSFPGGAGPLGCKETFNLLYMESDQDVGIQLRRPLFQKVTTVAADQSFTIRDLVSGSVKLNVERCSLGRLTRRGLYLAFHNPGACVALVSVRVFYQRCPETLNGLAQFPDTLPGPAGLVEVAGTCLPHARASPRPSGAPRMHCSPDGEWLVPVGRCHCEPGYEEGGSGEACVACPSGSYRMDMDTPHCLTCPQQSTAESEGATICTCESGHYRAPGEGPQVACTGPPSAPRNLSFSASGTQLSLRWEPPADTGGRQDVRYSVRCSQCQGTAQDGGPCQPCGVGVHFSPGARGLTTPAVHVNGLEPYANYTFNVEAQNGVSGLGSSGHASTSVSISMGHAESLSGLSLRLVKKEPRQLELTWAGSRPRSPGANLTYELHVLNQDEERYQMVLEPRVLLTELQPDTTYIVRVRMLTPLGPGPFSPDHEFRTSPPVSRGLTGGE


Assays:
Experiment in all cases: Selectivity ELISA of humanized antibodies for human Eph receptor
Assay type in all cases: binding
human EphA4 = target: T3, human EphA4 (Homo sapiens, UniProt P54764); conditions: coated protein 1 nM; reference set to 100%
T3 construct: made in house; not restated for the human SEAP-His protein
T3 sequence (P54764 20-547): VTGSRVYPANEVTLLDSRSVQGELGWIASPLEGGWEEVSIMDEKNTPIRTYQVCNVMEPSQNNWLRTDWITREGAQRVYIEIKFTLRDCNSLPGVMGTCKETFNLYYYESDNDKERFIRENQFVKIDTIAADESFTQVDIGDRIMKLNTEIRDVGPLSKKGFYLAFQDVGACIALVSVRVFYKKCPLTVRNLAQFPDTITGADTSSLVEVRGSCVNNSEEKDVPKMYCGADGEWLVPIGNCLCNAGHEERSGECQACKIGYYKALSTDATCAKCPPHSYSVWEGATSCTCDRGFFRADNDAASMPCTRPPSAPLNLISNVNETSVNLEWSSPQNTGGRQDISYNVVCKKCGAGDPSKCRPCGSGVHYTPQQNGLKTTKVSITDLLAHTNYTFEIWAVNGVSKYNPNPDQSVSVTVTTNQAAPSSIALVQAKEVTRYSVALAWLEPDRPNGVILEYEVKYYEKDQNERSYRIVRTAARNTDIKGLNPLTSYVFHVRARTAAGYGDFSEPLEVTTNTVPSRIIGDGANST
In short: (§1)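 Read-out is A450 after TMB development stopped with 1N H2SO4. Plates bore anti-His-captured human Eph extracellular region-SEAP-His proteins at 1 nM final, made in Expi293F cells. Humanized antibody binding ran 1 h at room temperature before HRP-labeled anti-IgG detection.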

human EphB4 = target: T1, human EphB4; conditions: coated protein 1 nM
In short: as §1

human EphA1 = target: T2, human EphA1; conditions: coated protein 1 nM
In short: as §1

| Molecule | hEphA4-SEAP-: absorbance at 450 nm, percentage with respect to hEphA4-SEAP-His as 100% (human EphA4) [%] | hEphB4-SEAP-: absorbance at 450 nm, percentage with respect to hEphA4-SEAP-His as 100% (human EphB4) [%] | hEphA1-SEAP-: absorbance at 450 nm, percentage with respect to hEphA4-SEAP-His as 100% (human EphA1) [%] |
| --- | --- | --- | --- |
| 67 (antibody, V domains shown, synthetic humanized antibody heavy chain variable region sequence; synthetic humanized antibody light chain variable region sequence) VH: QIQLVQSGSELKKPGASVKVSCKASGYTFTDYSMHWVRQAPGQGLKWMGWINTETGEPTYAQGFTGRFVFSLDTSVSTAYLQISSLKAEDTAVYYCARIPLYYYGSRYWYFDVWGQGTTVTVSS VL: DIQMTQSPSSLSASVGDRVTITCRASENIYRNLAWYQQKPGKAPKLLVYAATNLADGVPSRFSGSGSGTDYTLTISSLQPEDFATYYCQHFWGTPWTFGQGTKVEIK | 100 | 4.9 | 4.6 |
| 77 (antibody, V domains shown, synthetic humanized antibody heavy chain variable region sequence; synthetic humanized antibody light chain variable region sequence) VH: QVQLVQSGSELKKPGASVKVSCKASGYTFTDYSMHWVRQAPGQGLEWMGWINTETGEPTYADDFKGRFVFSLDTSVSTAYLQISSLKAEDTAVYYCARIPLYYYGSRYWYFDVWGQGTTVTVSS VL: DIQMTQSPSSLSASVGDRVTITCRASENIYRNLAWYQQKPGKAPKLLVYAATNLADGVPSRFSGSGSGTDYTLTISSLQPEDFATYYCQHFWGTPWTFGQGTKVEIK | 100 | 4.5 | 4.5 |

Results, then the molecule that gave them:

| hEphA4-SEAP-: absorbance at 450 nm, percentage with respect to hEphA4-SEAP-His as 100% (human EphA4) [%] | hEphB4-SEAP-: absorbance at 450 nm, percentage with respect to hEphA4-SEAP-His as 100% (human EphB4) [%] | hEphA1-SEAP-: absorbance at 450 nm, percentage with respect to hEphA4-SEAP-His as 100% (human EphA1) [%] | Molecule |
| --- | --- | --- | --- |
| 100 | 5.6 | 5.7 | 156 (antibody, V domains shown, synthetic humanized antibody heavy chain variable region sequence; synthetic humanized antibody light chain variable region sequence) VH: QIQLVQSGSELKKPGASVKVSCKASGYTFTDYSMHWVRQAPGQGLKWMGWINTETGEPTYAQGFTGRFVFSLDTSVSTAYLQISSLKAEDTAVYYCARIPLYYYGSRYWYFDVWGQGTTVTVSS VL: DIQMTQSPSSLSASVGDRVTITCRASENIYRNLAWYQQKPGKAPQLLLYAATNLADGVPSRFSGSGSGTDYTLTISSLQPEDFATYYCQHFWGTPWTFGQGTKVEIK |
| 100 | 5.2 | 5.3 | 136 (antibody, V domains shown, synthetic humanized antibody heavy chain variable region sequence; synthetic humanized antibody light chain variable region sequence) VH: QVQLVQSGSELKKPGASVKVSCKASGYTFTDYSMHWVRQAPGQGLKWMGWINTETGEPTYADDFKGRFVFSLDTSVSTAYLQISSLKAEDTAVYYCARIPLYYYGSRYWYFDVWGQGTTVTVSS VL: EIVMTQSPATLSVSPGERATLSCRASENIYRNLAWYQQKPGQSPRLLIYAATNLADGIPARFSGSGSGTEYTLTISSLQSEDFAVYYCQHFWGTPWTFGQGTKVEIK |
| 100 | 5.1 | 6.6 | 78 (antibody, V domains shown, synthetic humanized antibody heavy chain variable region sequence; synthetic humanized antibody light chain variable region sequence) VH: QVQLVQSGSELKKPGASVKVSCKASGYTFTDYSMHWVRQAPGQGLKWMGWINTETGEPTYADDFKGRFVFSLDTSVSTAYLQISSLKAEDTAVYYCARIPLYYYGSRYWYFDVWGQGTTVTVSS VL: DIQMTQSPSSLSASVGDRVTITCRASENIYRNLAWYQQKPGKAPKLLVYAATNLADGVPSRFSGSGSGTDYTLTISSLQPEDFATYYCQHFWGTPWTFGQGTKVEIK |
